{"source": "paper PMC5871780", "about": "“Klf4 glutamylation is required for cell reprogramming and early embryonic development in mice”", "binders": {"B1": {"name": "Nanog promoter probe (dsDNA)", "DNA 1": "GCCGCCTGGGTGCCTGGGAGAATAGGGGGTGGGTAGGGTAGGAGGCTTG", "DNA 2": "CAAGCCTCCTACCCTACCCACCCCCTATTCTCCCAGGCACCCAGGCGGC"}}, "key": {"GST-Klf4-E381A": {"target": "GST-Klf4-E381A (Mus musculus, UniProt Q60793 1-483, E381A)", "sequence (Q60793 whole entry E381A)": "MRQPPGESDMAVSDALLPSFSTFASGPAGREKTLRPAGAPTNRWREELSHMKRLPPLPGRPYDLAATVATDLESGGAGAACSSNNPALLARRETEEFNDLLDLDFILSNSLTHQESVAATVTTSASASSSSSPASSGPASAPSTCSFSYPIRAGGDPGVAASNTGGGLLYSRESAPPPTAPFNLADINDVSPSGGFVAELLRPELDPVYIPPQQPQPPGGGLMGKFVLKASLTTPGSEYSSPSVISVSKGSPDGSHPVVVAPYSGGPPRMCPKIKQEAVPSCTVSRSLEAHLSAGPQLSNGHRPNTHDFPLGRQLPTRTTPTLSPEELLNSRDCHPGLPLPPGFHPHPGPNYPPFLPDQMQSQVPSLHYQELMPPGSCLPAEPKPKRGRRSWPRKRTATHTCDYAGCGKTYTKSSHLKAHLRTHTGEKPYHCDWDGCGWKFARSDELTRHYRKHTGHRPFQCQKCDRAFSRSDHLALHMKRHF", "experiment": "EMSA; affinity comparable to wt; LightShift Chemiluminescent EMSA Kit (Thermo Scientific), per manufacturer; buffer, salt, pH and temperature not stated", "details": "protein: recombinant; tags: GST (N-term, pGEX-6P-1); blunt"}, "GST-Klf4-wt": {"target": "GST-Klf4-wt (Mus musculus, UniProt Q60793 1-483)", "sequence (Q60793 whole entry)": "as the sequence (Q60793 whole entry E381A) above, with A381E counted along it", "experiment": "EMSA; unlabeled probe (1x or 100x) competes; LightShift Chemiluminescent EMSA Kit (Thermo Scientific), per manufacturer; buffer, salt, pH and temperature not stated", "details": "protein: recombinant; tags: GST (N-term, pGEX-6P-1); blunt"}}, "data": [{"binder": "B1", "values": [{"measurement": "binding result", "setting": "GST-Klf4-E381A", "result": "binds"}, {"measurement": "binding result", "setting": "GST-Klf4-wt", "result": "binds"}]}]}
